Test results from US5795974.

Assays:
[1] = molecular target: I-Eα chain of the murine MHC (class II) (mouse)
[2] = molecular target: Vβ 8.2 TCR on T hybridoma

| Substance | Uptake of 3H-TdR by Mouse Lymphocytes (counts per minute × 10^-3) [1] | IL-2 (U/ml) produced by T hybridomas + APCs (Vβ 3 TCR on T hybridoma) [U/ml] | IL-2 (U/ml) produced by T hybridomas + APCs (Vβ 11 TCR on T hybridoma) [U/ml] | IL-2 (U/ml) produced by T hybridomas + APCs (Vβ 1 TCR on T hybridoma) [U/ml] | IL-2 (U/ml) produced by T hybridomas + APCs (Vβ 6 TCR on T hybridoma) [U/ml] | IL-2 (U/ml) produced by T hybridomas + APCs [2] [U/ml] |
| --- | --- | --- | --- | --- | --- | --- |
| Native Mycoplasma arthritidis T-cell mitogen (MAM) (ligand) | 108 | 0 | 0 | 0 | 640 | 232 |
| Staphylococcus enterotoxin B (from UniProt P01552) (ligand) | – | 1830 | 0 | 0 | 0 | 608 |
| MBP-MAM fusion protein | 80.7 | – | – | – | – | – |
| Staphylococcus enterotoxin A (from UniProt P0A0L2) (ligand) | – | 1880 | 1180 | 691 | – | 0 |
